Results published in paper PMC4755738, “Actin filaments target the oligomeric maturation of the dynamin GTPase Drp1 to mitochondrial fission sites” (eLife, 2015).

Assays:
[1] = target: T1, Rabbit skeletal muscle actin (filaments) (rabbit, UniProt P68135 1-377); assay: cell-based or functional assay
[2] = target: T1, Rabbit skeletal muscle actin (filaments); assay: co-sedimentation; high-speed co-sedimentation; Drp1 1.3 uM with pre-polymerized actin filaments 0.25-10 uM, 1 hr at 23 C, 200 ul, ionic strength 75 mM (NaCl); 80,000 rpm 20 min 4 C (TLA-100.1); pellets on SDS-PAGE, Colloidal blue, ImageJ; apparent Kd; details: both partners purified

B1: Human Drp1 isoform 000 (E. coli-purified) (enzyme)
chain: MEALIPVINKLQDVFNTVGADIIQLPQIVVVGTQSSGKSSVLESLVGRDLLPRGTGIVTRRPLILQLVHVSQEDKRKTTGEENGVEAEEWGKFLHTKNKLYTDFDEIRQEIENETERISGNNKGVSPEPIHLKIFSPNVVNLTLVDLPGMTKVPVGDQPKDIELQIRELILRFISNPNSIILAVTAANTDMATSEALKISREVDPDGRRTLAVITKLDLMDAGTDAMDVLMGRVIPVKLGIIGVVNRSQLDINNKKSVTDSIRDEYAFLQKKYPSLANRNGTKYLARTLNRLLMHHIRDCLPELKTRINVLAAQYQSLLNSYGEPVDDKSATLLQLITKFATEYCNTIEGTAKYIETSELCGGARICYIFHETFGRTLESVDPLGGLNTIDILTAIRNATGPRPALFVPEVSFELLVKRQIKRLEEPSLRCVELVHEEMQRIIQHCSNYSTQELLRFPKLHDAIVEVVTCLLRKRLPVTNEMVHNLVAIELAYINTKHPDFADACGLMNNNIEEQRRNRLARELPSAVSRDKVASGGGGVGDGVQEPTTGNWRGMLKTSKAEELLAEEKSKPIPIMPASPQKGHAVNLLDVPVPVARKLSAREQRDCEVIERLIKSYFLIVRKNIQDSVPKAVMHFLVNHVKDTLQSELVGQLYKSSLLDDLLTESEDMAQRRKEAADMLKALQGASQIIAEIRETHLW
notes: Drp1 (dynamin-related protein 1), human, isoform 000 of Strack et al. 2013; Cloned in pET16b with an N-terminal Strep-tag followed by an HRV3C protease site; eluted from the resin by HRV3C cleavage; Used in high-speed co-sedimentation and GTPase assays; also called dynamin GTPase Drp1; not shown: Strep-tag, N-terminal, cleaved
In the case of B1, the “Drp1 GTPase activity (malachite green phosphate release) with 0.5 or 1 uM pre-polymerized actin filaments, against Drp1 alone” value [1] is reported as about 3.5 fold and the Kd [2] is reported as 800 ± 400 nM.
